From publication PMC8588329

Target: recombinant Plasmodium knowlesi lactate dehydrogenase (Plasmodium knowlesi)
Assay: SEC; Superdex 200 10/300 GL, 50 mM phosphate buffer pH 7.4, 250 mM NaCl, 0.50 mL/min; elution volume 13 mL set against a calibration curve of protein standards

stoichiometry N: 4
Substance: recombinant Plasmodium knowlesi lactate dehydrogenase (enzyme)
